Laboratory results reported in US20240301068A1 (BEIJING HANMI PHARMACEUTICAL, published 2024).
Positions count from the first letter of the chain named.

B1: murine anti-human PD-L1 monoclonal antibody secreted by the clone 34-35 (antibody, V domains shown)
VH: EVQLQQSGAELVKPGASVKLSCTASGFNIEDTYIHWVMQRPEQGLEWIGRIDPANGNTKYDPKFQGKATITADTSSNTAYLQLSSLTSEDTAVYYCGRGLGAWFAYWGQGTLVTVSA
VL: DIVMTQSHKVMSTSVGDRVTITCKASQDVHTAVAWIHQKPGQSPKLLIYSASNRYTGVPDRFTGSGSGTDFTFTISSVQAEDLAVYYCQQHYITPLTFGAGTTLELK
notes: also called murine monoclonal antibodies
B2: humanized anti-human PD-L1 monoclonal antibody VLS10-VHS7 (antibody, human IgG1, kappa, V domains shown)
VH: QVQLVQSGAEVKKPGSSVKVSCTASGFNIEDTYIHWVRQAPGQGLEWMGRIDPANGNTKYDPKFQGRVTITADTSTNTAYMELSSLRSEDTAVYYCGRGLGAWFAYWGQGTLVTVSS
VL: DIQMTQSPSSLSASVGDRVTITCKASQDVHTAVAWIHQKPGKAPKLLIYSASNRYTGVPSRFSGSGSGTDFTFTISSLQPEDIATYYCQQHYITPLTFGQGTKLEIKR
B3: humanized anti-human PD-L1 monoclonal antibody VLS15-VHS12 (antibody, human IgG1, kappa, V domains shown)
VH: B2 VH with Q1E, T23K
VL: B2 VL with H37Q, A43S
B4: humanized anti-human PD-L1 monoclonal antibody VLS10-VHS7 P2 (antibody, human IgG1, kappa, V domains shown)
VH: B2 VH with N55S
VL: B2 VL
B5: humanized anti-human PD-L1 monoclonal antibody VLS10-VHS7 P3 (antibody, human IgG1, kappa, V domains shown)
VH: B2 VH with G56A
VL: B2 VL
B6: humanized anti-human PD-L1 monoclonal antibody VLS10-VHS7 P1 (antibody, human IgG1, kappa, V domains shown)
VH: B2 VH with N55Q
VL: B2 VL
B7: humanized anti-human PD-L1 monoclonal antibody VLS15-VHS12 P2 (antibody, human IgG1, kappa, V domains shown)
VH: B2 VH with Q1E, T23K, N55S
VL: B2 VL with H37Q, A43S
B8: humanized anti-human PD-L1 monoclonal antibody VLS15-VHS12 P3 (antibody, human IgG1, kappa, V domains shown)
VH: B2 VH with Q1E, T23K, G56A
VL: B2 VL with H37Q, A43S
B9: humanized anti-human PD-L1 monoclonal antibody VLS15-VHS12 P1 (antibody, human IgG1, kappa, V domains shown)
VH: B2 VH with Q1E, T23K, N55Q
VL: B2 VL with H37Q, A43S

Molecular target: T1, recombinant human PD-L1-Fc protein (human, UniProt Q9NZQ7 19-238, limits assumed)
T1 construct: Prepared by Beijing Hanmi Pharmaceutical; The GenBank number is NP_001254635.1
Experiment: blocking ELISA, plate coated with 1 ug/mL human PD-L1-Fc; blocked ligand biotin-labelled PD-1-Fc at 20 nM final, streptavidin-HRP, OD450
Description: (§1) A 96-well high-adsorption ELISA plate was coated with 1 μg/mL of the recombinant human PD-L1-Fc at 100 μL per well using carbonate buffer solution, pH=9.6 at 4° C. overnight. The plate was washed 5 times with PBST, and then blocked using PBST with 1% BSA, 300 μL/well, and incubated at 25° C. for 1 hour, and then washed 5 times with PBST. […] The Streptavidin-HRP (BD Pharmingen, catalog number 554066) diluted 1:1000 in PBST with 1% BSA was then added, 100 μL per well, and incubated at 25° C. for 1 hour. The plate was washed 5 times with PBST. The colorimetric substrate TMB was added, 100 μL/well, and developed at room temperature for 10 minutes. 1M H₂SO₄ was added, 100 μL/well, to stop the development. The absorbance at 450 nm was read on a microplate reader.

T1 sequence (Q9NZQ7 19-238 limits assumed): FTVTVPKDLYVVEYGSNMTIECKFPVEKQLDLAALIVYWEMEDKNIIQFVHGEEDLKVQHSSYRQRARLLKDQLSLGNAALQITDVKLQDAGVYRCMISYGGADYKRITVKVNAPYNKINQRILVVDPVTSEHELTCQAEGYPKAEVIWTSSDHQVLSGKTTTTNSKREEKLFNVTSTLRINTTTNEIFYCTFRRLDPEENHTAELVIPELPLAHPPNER

| IC50 | Binder |
| --- | --- |
| 610 pM | B1 |

Molecular target: T2, recombinant human PD-L1 (Sino Biological Inc.) (human, UniProt Q9NZQ7 19-239)
Experiment: affinity determination (dissociation constant), method not stated

T2 sequence (Q9NZQ7 19-239 limits assumed): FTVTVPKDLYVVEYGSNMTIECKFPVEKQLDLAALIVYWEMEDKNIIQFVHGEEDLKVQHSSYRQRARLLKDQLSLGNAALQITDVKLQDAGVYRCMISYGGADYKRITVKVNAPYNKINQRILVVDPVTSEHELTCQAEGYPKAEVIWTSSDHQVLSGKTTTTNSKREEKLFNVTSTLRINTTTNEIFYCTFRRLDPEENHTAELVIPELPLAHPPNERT

| koff | Binder |
| --- | --- |
| 0.000672 s⁻¹ | B2 |
| 0.000486 s⁻¹ | B3 |

Molecular target: T2, recombinant human PD-L1 (Sino …)
Experiment: PD-L1/CD80 blocking assay, competitor CD80, format not described

| IC50 | Binder |
| --- | --- |
| 890 pM | B2 |
| 857 pM | B4 |
| 804 pM | B5 |
| 865 pM | B6 |
| 755 pM | B7 |
| 802 pM | B3 |
| 813 pM | B8 |
| 795 pM | B9 |

Molecular target: T2, recombinant human PD-L1 (Sino …)
Experiment: ELISA, plate coated with 1 ug/mL recombinant human PD-L1, anti-mouse IgG-HRP, OD450
Description: The plate was washed 5 times with PBST, and then blocked using PBST with 1% BSA, 300 μL/well, and incubated at 25° C. for 1 hour, and then washed 5 times with PBST. […] The plate was washed 5 times with PBST. The colorimetric substrate TMB was added, 100 μL/well, and developed at room temperature for 10 minutes. 1M H₂SO₄ was added, 100 μL/well, to stop the development. The absorbance at 450 nm was read on a microplate reader.

| EC50 | Binder |
| --- | --- |
| 494 pM | B1 |

Molecular target: T2, recombinant human PD-L1 (Sino …)
Experiment: SPR, Biacore X100
Description: This instrument utilizes optical surface plasmon resonance technology to detect the association and dissociation between the molecules coated on the biochip and the molecules to be tested. Association constants and dissociation constants were analyzed and calculated by Biacore X100 evaluation software. […]

| Kd | koff | kon | Binder |
| --- | --- | --- | --- |
| 1710 pM | 0.000584 s⁻¹ | 341000 M⁻¹ s⁻¹ | B2 |
| 3230 pM | 0.000994 s⁻¹ | 307000 M⁻¹ s⁻¹ | B4 |
| 2930 pM | 0.000747 s⁻¹ | 255000 M⁻¹ s⁻¹ | B5 |
| 3160 pM | 0.00108 s⁻¹ | 341000 M⁻¹ s⁻¹ | B6 |
| 1940 pM | 0.00072 s⁻¹ | 372000 M⁻¹ s⁻¹ | B7 |
| 1390 pM | 0.000477 s⁻¹ | 342000 M⁻¹ s⁻¹ | B3 |
| 1560 pM | 0.000528 s⁻¹ | 338000 M⁻¹ s⁻¹ | B8 |
| 2560 pM | 0.000833 s⁻¹ | 326000 M⁻¹ s⁻¹ | B9 |

Molecular target: T1, recombinant human PD-L1-Fc protein
Experiment: competition ELISA: PD-L1-Fc coated, competitor biotin-labelled PD-1-Fc
Description: as §1

| IC50 | Binder |
| --- | --- |
| 749 pM | B2 |
| 725 pM | B4 |
| 617 pM | B5 |
| 756 pM | B6 |
| 585 pM | B7 |
| 666 pM | B3 |
| 613 pM | B8 |
| 567 pM | B9 |

Molecular target: T2, recombinant human PD-L1 (Sino …)
Experiment: ELISA, human PD-L1 coated
Description: as §1, with “PD-L1 (Sino Biological Inc.)” for “PD-L1-Fc”, “horseradish peroxidase-labeled anti-human IgG antibody (Chemicon,” for “Streptavidin-HRP (BD Pharmingen,”, “AP309P)” for “554066)”, “1:10000” for “1:1000”

| EC50 | Binder |
| --- | --- |
| 67 pM | B2 |
| 59 pM | B4 |
| 63 pM | B5 |
| 67 pM | B6 |
| 60 pM | B7 |
| 46 pM | B3 |
| 75 pM | B8 |
| 48 pM | B9 |
